Test results published in the nanobody polyreactivity screen of Harvey et al. (2022).

experiment: yeast display, Sf9 membrane polyspecificity reagent, FACS + sequencing; frameworks hold sequencing errors
How it was run: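 Galactose induction of a Saccharomyces cerevisiae BJ5465 synthetic nanobody display library ran 36–48 hours. The cells were then stained for 1 hour at 4 °C with 10% biotinylated, detergent-solubilized Sf9 membrane reagent, pulled down on streptavidin microbeads and FACS-sorted into low and high (top ~1%) gates on expression and reagent-binding fluorescence. Labels for polyreactivity follow the gate of origin.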

Row | Sequence | polyreactivity (PSR sort gate)
1 | QVQLVESGGGLVQAGGSLRLSCAASGSIFNYYALGWYRQAPGKEREFVADISGSGSSTYYADSVKGRFTISRDNAQNTVYLQMNSLKPEDTAVYYCNAEYYWGVGYYPYSDYGYWGQGTQVTVSS | low polyreactivity
2 | QVQLVESGGGLVQAGGSLRLSCAASGSIFNYYAMGWYRQAPGKERELVAAITTSGGNTYYADSVKGRFTISRDNAKNTVYLQMNSLKPEDTAVYYCNTVYAGAAWYQYGYWGQGTQVTVSS | low polyreactivity
3 | QVQLVESGGGLVQAGGSLRLSCAASGSIFNYYGMGWYRQAPGKERELVAAISVRGGRTYYADSVKGRFTISRDNAKNTVYLQMNSLKPEDTAVYYCAADGGYSLGYYDDELDYWGQGTQVTVSS | low polyreactivity
4 | QVQLVESGGGLVQAGGSLRLSCAASGSIFPAYAMGWYRQAPGKERELVAAITDRCGSTYYADSVKGRFTISRDNANNTVSLQMNSLKPEDTYWGQGTQVTVSS | low polyreactivity
5 | QVQLVESGGGLVQAGGSLRLSCAASGSIFPAYAMGWYRQAPGKERELVAAITGSGGSTYYADSVKGRFTISRDNAKNTVYLQLNSLKPEDTAVYYCAATIRQFRRYDYWGQGTQVTVSS | low polyreactivity
6 | QVQLVESGGGLVQAGGSLRLSCAASGSIFPAYTMGWYRPAPGKERELVAAITRRGGSTYYADSVKGRFTISRDNSKNTVYLQMNSLKPEDTAVYYCAAGGLYTPYDYWGQGTQVTVSS | low polyreactivity
7 | QVQLVESGGGLVQAGGSLRLSCAASGSIFPDNTMGWYRQAPGKERELVAAIDGRGGTTYYADSVKGRFTISRDNAKNTVYLQMNSLKPEDTAVYYCARDIGHSARYDYWGQGTQVTVSS | low polyreactivity
8 | QVQLVESGGGLVQAGGSLRLSCAASGSIFPEYAMGWYIQAPGKERELVASISSGGSSTYYADSVKGRFTISRDNAKNTVYLQMNSLKPEDTAVYYCARRRSYKRRFDYWGQGTQVTVSS | low polyreactivity
9 | QVQLVESGGGLVQAGGSLRLSCAASGSIFPEYAMGWYRQAPGKERELVAAITTSGGSTYYADSVKGRFTISRDNAKNTVYLQMNSLKPEDTAVYYCAAGTQAHAYVVRPIEMDYWGQGTQVTVSS | low polyreactivity
10 | QVQLVESGGGLVQAGGSLRLSCAASGSIFPFYAMGWSRQAPGKERELVAAITWISGRTYYADSVKGRFTISRDNAKTTVYLQRNRLKPEDTAVYYCAVDYYSWLRRDDYWGQGTQVTVSS | low polyreactivity
11 | QVQLVESGGGLVQAGGSLRLSCAASGSIFPFYAMGWYRQAPGKERELVATISWSGGRTYYADSVKGRFTISRDNAKNTVYLQMNSLKPEDTAVYYCAAGSYHYPNAYYYWGHGTQVTVSS | high polyreactivity
12 | QVQLVESGGGLVQAGGSLRLSCAASGSIFPGYAMGWSRQAPEKERELVAAISRRGGSTYYADSVKGRFTISRDNAKNTVYLQMNSLKPEDNAVYYCAKDGTGAGTYDYWGQGTKVTVSS | low polyreactivity
13 | QVQLVESGGGLVQAGGSLRLSCAASGSIFPGYAMGWYRQAPGKERELVAAISSGGSTNYADSVKGRFTISRDNAKNTVYLQMNSLKPEDTAVYYCAARVWRYHVYAFYYWGQGTQVTVSS | high polyreactivity
14 | QVQLVESGGGLVQAGGSLRLSCAASGSIFPGYAMGWYRQAPGKERELVATIRWSSGSRTNYADSVKGRFTISRDNAKNTVYLQMNSLKPEDTAVYYCAAGSRRYKYDYWGQGTQVTVSS | high polyreactivity
15 | QVQLVESGGGLVQAGGSLRLSCAASGSIFPGYAMGWYRQAPGKERELVATITWSGGSTYYADSVKGRFTISRDKAKNTVYLQMNSLKPEDTAVYYCNADSNWYYQWNYYGLYDYWGQGTQVTVSS | low polyreactivity
16 | QVQLVESGGGLVQAGGSLRLSCAASGSIFPHNAMGWYRQAPGKERVLVASITSRGGITYYADSVKGRFTISRDNAKNTVYLQMNSLKPEDTAVYYCAADLYIYPYDYWGQGTQVTVSS | low polyreactivity

Row | Sequence | polyreactivity (PSR sort gate)
17 | QVQLVESGGGLVQAGGSLRLSCAASGSIFPHNAMGWYRTAPGKDRELVAAISWRDVISYYADSVKGRFTISRDNAKNTVYLQMNSLKPEDTAVYYCAAELRVYGVDYEYWGQGTQVTVSS | high polyreactivity
18 | QVQLVESGGGLVQAGGSLRLSCAASGSIFPHNTMGWYRQAPGNERELVAAISRSGGSTYYADSVKGRFTISRDNAKNTVYLQMNSLKPEDTAVYYCARDSYDVGHQVVSDERLYDYWGQGTQVTVSS | low polyreactivity
19 | QVQLVESGGGLVQAGGSLRLSCAASGSIFPHYAMGWYRQAPGKERELVAAISSGTSTNYADSVKGRFTISRDNAKNTVYLQMNSLKPEDTAVYYCAADIGVYGERREEEFDYWGQGTQVTVSS | low polyreactivity
20 | QVQLVESGGGLVQAGGSLRLSCAASGSIFPHYAMGWYRQAPGKERELVATIRSRSGSTYYADSVKGRFTISRDNAKNTVYLQMNSLKPEDTAVYYCAKDNSLFQRDYWGQGTQVTVSS | low polyreactivity
21 | QVQLVESGGGLVQAGGSLRLSCAASGSIFPINARGWYREAPGKERELVAVITSGGGGTYYADSVKGRFTISRDNAKNTVYLQMNCLTPEDTAVYYCAKRLSRKWQKFGYWGQGTQVTVSS | low polyreactivity
22 | QVQLVESGGGLVQAGGSLRLSCAASGSIFPIYAMGWYRPAPGKERELVAAINRSGGSTYYADSVKGRFTISRDNAKNTVYLQMNSLKPEDTAVYYCNADYGYHNQLFWGYYGWSSDHWGQGTQVTVSS | low polyreactivity
23 | QVQLVESGGGLVQAGGSLRLSCAASGSIFPKNAMGWSRQAPGKVREFVATITKRGGRTYYADSVKGRFTISRDNAKNTVYLQMNSQKPEEPAVYYCARDQGKLVVPYDYWGQGTQLTVSS | high polyreactivity
24 | QVQLVESGGGLVQAGGSLRLSCAASGSIFPKNAMGWYRQAPGKERELVAGITSRTGRTYYADSVKGRFTISRDKAKNTVYLQMNSLKPEDTAVYYCAARIGGGPVKYDYWGQGTQVTVSS | high polyreactivity
25 | QVQLVESGGGLVQAGGSLRLSCAASGSIFPKNAMGWYRQATGKERELVARISGSGGSTYYADSVKGRFTISRDNAKNTVYLQMNSLKPEDTAVYYCAKDQSKIYSSWSGYYYWGQGTQVTVSS | low polyreactivity
26 | QVQLVESGGGLVQAGGSLRLSCAASGSIFPKYAKGWYRQAPGKEREMVAAINWRGVSTYYADSVKGRFTISRDNAKNTVYLQMNSLKPEDTAVYYCAADLLHTRQFGYWGQGTQVTVSS | low polyreactivity
27 | QVQLVESGGGLVQAGGSLRLSCAASGSIFPKYAMGWDRQAPGKERELVATITWSGSSTYYADSVKGRFTISRDNAKNTVYLQMNSLKPEDTAVYYCAATGWSSFYYRFDYWGQGTQVTVSS | low polyreactivity
28 | QVQLVESGGGLVQAGGSLRLSCAASGSIFPLNAMGWYRQAPGKERELVASISTGSSTYYADSVKGRFTISRDNAKNTVYLQMNSLKPEDTAVYYCAVDRVLFSDYYRGYEYNYWGQGTQVTVSS | low polyreactivity
29 | QVQLVESGGGLVQAGGSLRLSCAASGSIFPLNDMGWYRQAPGKERELVAAITIGGSTYYADSVKGRFTISRDNAKNTVYLQMNSLKPEDTAVYYCAKVGELSYRYDYWGQGTQVTVSS | high polyreactivity
30 | QVQLVESGGGLVQAGGSLRLSCAASGSIFPLYAMGWYRQAPGKERELVADITVSGGSTYYADSVKGRFTISRDNAKNTVYLQMNSLKPEDTAVYYCNADDRSPFPDYWWYPYDYDYWGQGTQVTVSS | low polyreactivity
31 | QVQLVESGGGLVQAGGSLRLSCAASGSIFPLYDMGWYRQAPGKERELVAGITGSGGSSYYADSVKGRFTISRDNAKNTVYLQMNSLKPEDTAVYYCAADYSLYGWWFRNDYWGQGTQVTVSS | low polyreactivity
32 | QVQLVESGGGLVQAGGSLRLSCAASGSIFPNGMGSYRQAPGKERELVATITSGGSTYYADSVKGRFTISRDNAKNTVYLQMNSLKPEETAVYYCADTVYGGYSGSGCNYWGKGTQVTVSS | low polyreactivity
